Reference: patent US20140274782A1, “AFFINITY REAGENTS AND METHODS FOR DETECTION, PURIFICATION, AND PROTEOMIC ANALYSIS OF METHYLATED PROTEINS” (The Board of Trustees of the Leland Stanford Junior …, priority 2013, published 2014)

T1: G9a and GLP (Homo sapiens, UniProt Q96KQ7+Q9H9B1)
T1 sequence (Q96KQ7 2-1210 limits assumed): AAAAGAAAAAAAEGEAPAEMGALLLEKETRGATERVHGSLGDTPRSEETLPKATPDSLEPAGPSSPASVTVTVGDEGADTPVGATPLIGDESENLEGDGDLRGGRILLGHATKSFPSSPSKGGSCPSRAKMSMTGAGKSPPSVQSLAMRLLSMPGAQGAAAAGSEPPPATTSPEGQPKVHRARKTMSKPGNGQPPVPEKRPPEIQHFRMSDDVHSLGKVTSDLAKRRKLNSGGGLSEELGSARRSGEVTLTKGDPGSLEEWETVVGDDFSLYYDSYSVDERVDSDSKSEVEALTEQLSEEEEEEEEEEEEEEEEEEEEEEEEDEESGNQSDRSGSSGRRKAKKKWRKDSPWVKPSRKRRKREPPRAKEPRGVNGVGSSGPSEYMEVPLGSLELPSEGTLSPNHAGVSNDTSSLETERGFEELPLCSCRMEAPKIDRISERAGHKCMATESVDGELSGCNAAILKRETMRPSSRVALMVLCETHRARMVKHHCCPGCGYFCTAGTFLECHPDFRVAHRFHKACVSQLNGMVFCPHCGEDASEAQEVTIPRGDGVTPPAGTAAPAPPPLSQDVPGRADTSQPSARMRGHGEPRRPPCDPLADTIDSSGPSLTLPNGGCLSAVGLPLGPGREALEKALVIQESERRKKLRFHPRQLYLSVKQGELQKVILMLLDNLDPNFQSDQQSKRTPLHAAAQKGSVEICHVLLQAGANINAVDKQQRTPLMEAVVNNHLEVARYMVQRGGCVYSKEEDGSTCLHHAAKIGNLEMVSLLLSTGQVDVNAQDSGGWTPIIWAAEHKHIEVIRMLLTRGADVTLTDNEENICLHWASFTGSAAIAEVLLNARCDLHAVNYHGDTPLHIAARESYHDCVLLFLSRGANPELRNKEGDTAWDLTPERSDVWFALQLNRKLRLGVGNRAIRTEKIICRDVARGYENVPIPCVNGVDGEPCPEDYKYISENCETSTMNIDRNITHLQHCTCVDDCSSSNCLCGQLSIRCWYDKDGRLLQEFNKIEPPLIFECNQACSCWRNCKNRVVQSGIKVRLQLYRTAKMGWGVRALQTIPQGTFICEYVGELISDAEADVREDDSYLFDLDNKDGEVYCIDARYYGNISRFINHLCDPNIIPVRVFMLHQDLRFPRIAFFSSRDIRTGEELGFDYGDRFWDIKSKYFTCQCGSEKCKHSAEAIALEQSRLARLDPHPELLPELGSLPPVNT
T1 sequence (Q9H9B1 2-1298 limits assumed): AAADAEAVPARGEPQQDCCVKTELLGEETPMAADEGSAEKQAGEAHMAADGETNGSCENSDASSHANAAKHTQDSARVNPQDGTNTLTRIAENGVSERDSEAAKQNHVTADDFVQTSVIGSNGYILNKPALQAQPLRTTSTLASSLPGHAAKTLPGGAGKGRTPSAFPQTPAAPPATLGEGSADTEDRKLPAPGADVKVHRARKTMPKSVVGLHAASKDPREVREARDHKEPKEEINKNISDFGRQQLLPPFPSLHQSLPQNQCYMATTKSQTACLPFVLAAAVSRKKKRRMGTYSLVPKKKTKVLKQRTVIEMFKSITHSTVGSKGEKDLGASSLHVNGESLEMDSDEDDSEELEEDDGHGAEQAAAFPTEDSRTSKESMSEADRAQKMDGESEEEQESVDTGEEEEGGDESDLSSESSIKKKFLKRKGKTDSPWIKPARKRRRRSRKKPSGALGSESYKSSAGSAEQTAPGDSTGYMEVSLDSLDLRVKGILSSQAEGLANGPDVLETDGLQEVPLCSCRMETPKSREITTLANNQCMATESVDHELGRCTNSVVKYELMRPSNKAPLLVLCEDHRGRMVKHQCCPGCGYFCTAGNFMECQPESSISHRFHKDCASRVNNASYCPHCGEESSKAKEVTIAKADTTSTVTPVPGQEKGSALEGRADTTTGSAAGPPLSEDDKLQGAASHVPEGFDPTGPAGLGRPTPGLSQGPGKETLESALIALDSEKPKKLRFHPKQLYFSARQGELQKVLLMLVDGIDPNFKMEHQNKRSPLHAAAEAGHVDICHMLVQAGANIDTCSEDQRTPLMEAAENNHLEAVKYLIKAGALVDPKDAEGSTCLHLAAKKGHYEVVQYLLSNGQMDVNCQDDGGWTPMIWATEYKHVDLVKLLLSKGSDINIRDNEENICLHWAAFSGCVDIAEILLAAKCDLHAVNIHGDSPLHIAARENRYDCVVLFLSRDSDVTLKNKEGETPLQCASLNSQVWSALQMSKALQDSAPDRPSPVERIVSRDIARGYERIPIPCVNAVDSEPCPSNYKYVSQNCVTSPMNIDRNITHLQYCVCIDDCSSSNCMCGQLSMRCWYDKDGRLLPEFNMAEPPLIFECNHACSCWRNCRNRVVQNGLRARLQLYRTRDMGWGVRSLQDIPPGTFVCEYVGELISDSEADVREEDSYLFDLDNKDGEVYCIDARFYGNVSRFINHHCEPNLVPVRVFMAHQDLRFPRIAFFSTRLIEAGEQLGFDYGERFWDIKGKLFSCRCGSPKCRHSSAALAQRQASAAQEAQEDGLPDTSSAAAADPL


Legend:
3×MBT domain of L3MBTL1 = assay: Triple SILAC pull-down, 3xMBT/3xMBTD355N ratio (cytoplasmic, nuclear and chromatin fractions of 293T cells); assay type: binding, human; details: for 3xMBT/D355N UNC Heavy / 3xMBT/D355N UNC Light: SILAC ratio, pull-down 3xMBT vs 3xMBTD355N; for 3xMBT/D355N UNC Heavy: experiment with UNC0638 in heavy SILAC media; for 3xMBT/D355N UNC Light: experiment with UNC0638 in light SILAC media;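 as to all read-outs here: proteins quantified with MaxQuant, requiring at least two unique peptides and quantification in both label directions, normalized to the mean of proteins from a digested loading control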
Procedure: For stable isotope labeling by amino acids in cell culture (SILAC) experiments HEK 293T cells were grown for at least six doublings in DMEM for SILAC supplemented with 10% dialyzed fetal bovine serum (FBS), 230 mg/L L-proline and either 100 mg/L each of L-lysine and L-arginine (“light” medium), D4-L-lysine and ^13C6-L-arginine (“medium” media), or ^13C6^15N2-L-lysine and ^13C6^15N4-L-arginine (Thermo Scientific). Heavy methyl labeling used DMEM without L-Methionine or L-Cysteine supplemented with D3^13C-L-Methionine (Sigma), L-Cysteine (Sigma) and 10% dialyzed FBS.
For UNC0638 treatments cells were treated for 24 hours with UNC0638 at 2.5 μM or DMSO vehicle control. One experiment treated cells in light media with UNC0638, the other treated cells in heavy media. Both experiments included cells in medium media treated with DMSO for negative control pull-down with 3×MBTD355N.
UNC0638 treatment experiments used a Q-Exactive mass spectrometer (ThermoFisher Scientific). A 25 cm HPLC column with 3 μm Reliasil (Orochem) was used to separate peptides over a 4 hour gradient from 0 to 75% acetonitrile. Ions were generated using a custom nanospray source flowing at 250 nL/minute. Mass spectrometry settings were 70,000 MS1 resolution, data dependent selection of up to 20 precursor ions per cycle, dynamic exclusion of 30 seconds and isolation window of 2 m/z. The nuclear fraction from the experiment using UNC0638 on cells in heavy media was additionally analyzed by 2D HPLC-MS/MS as described earlier.
Peptides were identified and quantified using MaxQuant version 1.2.2.5 (Cox and Mann, supra) with the following changes to default settings: mono- and di-methylation of lysine, and oxidation of methionine, and N-terminal acetylation as variable modifications, disabled “I=L”, up to three modifications per peptide, one missed cleavage, maximum charge of 5. Protein and peptide FDR were set to 1%, and proteins were filtered post-hoc for at least two unique peptides. Proteins were excluded from an experiment if they were not quantified in both labeling directions. Because FDR is unreliable for small numbers of peptides the modification site FDR was set to 10% and all methylated peptides were manually verified. […] Quantitative protein data was normalized to the mean value among proteins identified by analyzing 50 ng of digested loading control.
For UNC0638 experiments the treated vs. untreated ratio was determined by subtracting the value from 3×MBTD355N prior to dividing values from the light and heavy channels. Only proteins showing a two-fold signal to background ratio (3×MBT/3×MBTD355N) were evaluated as potential G9a/GLP substrates.

G9a and GLP = target: T1, G9a and GLP; assay: Triple SILAC pull-down after UNC0638 treatment of 293T cells, DMSO/UNC0638 ratio of protein captured by 3×MBT; assay type: cell-based; parameters: cells were treated for 24 hours with UNC0638 at 2.5 μM or DMSO vehicle control; endogenous in cells; host or cells: HEK 293T; details: for Relative to UNC0638 UNC Heavy / Relative to UNC0638 UNC Light: SILAC ratio DMSO/UNC0638 of protein pulled down with 3xMBT; for Relative to UNC0638 UNC Heavy: UNC0638 in heavy SILAC media; for Relative to UNC0638 UNC Light: UNC0638 in light SILAC media; for Relative to UNC0638 Average: average of UNC Light and UNC Heavy experiments;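 as to all read-outs here: mass spectrometry (Q-Exactive) SILAC quantitation, DMSO/UNC0638 ratio computed after subtracting 3×MBTD355N mutant pull-down background, only proteins with at least twofold 3×MBT over mutant signal considered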

| Relative to UNC0638 UNC Heavy (G9a and GLP) | Relative to UNC0638 UNC Light (G9a and GLP) | Relative to UNC0638 Average (G9a and GLP) | Molecule | 3xMBT/D355N UNC Heavy (3×MBT domain of L3MBTL1) | 3xMBT/D355N UNC Light (3×MBT domain of L3MBTL1) | number of proteins enriched by 3×MBT compared to 3×MBTD355N (3×MBT domain of L3MBTL1; two biological replicates) |
| --- | --- | --- | --- | --- | --- | --- |
| 0.22 log base 2 | 0.12 log base 2 | 0.17 log base 2 | CMAS: protein with methylated lysine identified in 3xMBT pull-down (protein, UniProt Q8NFW8 1-434, looked up) N-acylneuraminate …: MDSVEKGAATSVSNPRGRPSRGRPPKLQRNSRGGQGRGVEKPPHLAALILARGGSKGIPLKNIKHLAGVPLIGWVLRAALDSGAFQSVWVSTDHDEIENVAKQFGAQVHRRSSEVSKDSSTSLDAIIEFLNYHNEVDIVGNIQATSPCLHPTDLQKVAEMIREEGYDSVFSVVRRHQFRWSEIQKGVREVTEPLNLNPAKRPRRQDWDGELYENGSFYFAKRHLIEMGYLQGGKMAYYEMRAEHSVDIDVDIDWPIAEQRVLRYGYFGKEKLKEIKLLVCNIDGCLTNGHIYVSGDQKEIISYDVKDAIGISLLKKSGIEVRLISERACSKQTLSSLKLDCKMEVSVSDKLAVVDEWRKEMGLCWKEVAYLGNEVSDEECLKRVGLSGAPADACSTAQKAVGYICKCNGGRGAIREFAEHICLLMEKVNNSCQK | 2.71 log base 2 | 2.86 log base 2 |  |
| 0.27 log base 2 | 0.04 log base 2 | 0.15 log base 2 | eEF1A1: protein with methylated lysine identified in 3xMBT pull-down (protein, UniProt P68104 2-462, looked up, methylated lysine, protein with methylated lysine identified in 3xMBT pull-down) Elongation factor 1-alpha 1: GKEKTHINIVVIGHVDSGKSTTTGHLIYKCGGIDKRTIEKFEKEAAEMGKGSFKYAWVLDKLKAERERGITIDISLWKFETSKYYVTIIDAPGHRDFIKNMITGTSQADCAVLIVAAGVGEFEAGISKNGQTREHALLAYTLGVKQLIVGVNKMDSTEPPYSQKRYEEIVKEVSTYIKKIGYNPDTVAFVPISGWNGDNMLEPSANMPWFKGWKVTRKDGNASGTTLLEALDCILPPTRPTDKPLRLPLQDVYKIGGIGTVPVGRVETGVLKPGMVVTFAPVNVTTEVKSVEMHHEALSEALPGDNVGFNVKNVSVKDVRRGNVAGDSKNDPPMEAAGFTAQVIILNHPGQISAGYAPVLDCHTAHIACKFAELKEKIDRRSGKKLEDGPKFLKSGDAAIVDMVPGKPMCVESFSDYPPLGRFAVRDMRQTVAVGVIKAVDKKAAGAGKVTKSAQKAQKAK | 3.08 log base 2 | 2.87 log base 2 |  |
| 0.02 log base 2 | 0.29 log base 2 | 0.16 log base 2 | DDX1: protein with methylated lysine identified in 3xMBT pull-down (protein, UniProt Q92499 1-740, looked up) ATP-dependent RNA helicase …: MAAFSEMGVMPEIAQAVEEMDWLLPTDIQAESIPLILGGGDVLMAAETGSGKTGAFSIPVIQIVYETLKDQQEGKKGKTTIKTGASVLNKWQMNPYDRGSAFAIGSDGLCCQSREVKEWHGCRATKGLMKGKHYYEVSCHDQGLCRVGWSTMQASLDLGTDKFGFGFGGTGKKSHNKQFDNYGEEFTMHDTIGCYLDIDKGHVKFSKNGKDLGLAFEIPPHMKNQALFPACVLKNAELKFNFGEEEFKFPPKDGFVALSKAPDGYIVKSQHSGNAQVTQTKFLPNAPKALIVEPSRELAEQTLNNIKQFKKYIDNPKLRELLIIGGVAARDQLSVLENGVDIVVGTPGRLDDLVSTGKLNLSQVRFLVLDEADGLLSQGYSDFINRMHNQIPQVTSDGKRLQVIVCSATLHSFDVKKLSEKIMHFPTWVDLKGEDSVPDTVHHVVVPVNPKTDRLWERLGKSHIRTDDVHAKDNTRPGANSPEMWSEAIKILKGEYAVRAIKEHKMDQAIIFCRTKIDCDNLEQYFIQQGGGPDKKGHQFSCVCLHGDRKPHERKQNLERFKKGDVRFLICTDVAARGIDIHGVPYVINVTLPDEKQNYVHRIGRVGRAERMGLAISLVATEKEKVWYHVCSSRGKGCYNTRLKEDGGCTIWYNEMQLLSEIEEHLNCTISQVEPDIKVPVDEFDGKVTYGQKRAAGGGSYKGHVDILAPTVQELAALEKEAQTSFLHLGYLPNQLFRTF | 3.07 log base 2 | 3.64 log base 2 |  |
|  |  |  | 3×MBT: three MBT repeats of L3MBTL1 (amino acids 190-530 of accession NP—056293.4), expressed as GST or Flag fusion; methyl-lysine affinity reagent (protein, left off: a dimerising Fc or GST) EEWSSSQPATGEKKECWSWESYLEEQKAITAPVSLFQDSQAVTHNKNGFKLGMKLEGIDPQHPSMYFILTVAEVCGYRLRLHFDGYSECHDFWVNANSPDIHPAGWFEKTGHKLQPPKGYKEEEFSWSQYLRSTRAQAAPKHLFVSQSHSPPPLGFQVGMKLEAVDRMNPSLVCVASVTDVVDSRFLVHFDNWDDTYDYWCDPSSPYIHPVGWCQKQGKPLTPPQDYPDPDNFCWEKYLEETGASAVPTWAFKVRPPHSFLVNMKLEAVDRRNPALIRVASVEDVEDHRIKIHFDGWSHGYDFWIDADHPDIHPAGWCSKTGHPLQPPLGPREPSSASPGG |  |  | 370 |
